The record followed here is article PMC3807654 (Cell Reports, 2012).

The assay has as its target human α-synuclein, monomeric, full length (human, UniProt P37840 1-140). In words: fluorescence polarisation.

B1: Atto550-labeled SERF1a (Cys-SERF1a-Cys, N- and C-terminal double cysteine mutant) (natural protein)
chain: MC(Atto550 maleimide)ARGNQRELARQKNMKKTQEISKGKRKEDSLTASQRKQRDSEIMQEKQKAANEKKSMQTREKC(Atto550 maleimide)
In turn, B1 returned a Kd of 8.04 ± 2.09 µM.
